Biological target: Human GRLBD-F602S (520-778), glucocorticoid receptor ligand binding domain (human) (UniProt P04150)
UniProt P04150, sequence (P04150 520-777 F602S): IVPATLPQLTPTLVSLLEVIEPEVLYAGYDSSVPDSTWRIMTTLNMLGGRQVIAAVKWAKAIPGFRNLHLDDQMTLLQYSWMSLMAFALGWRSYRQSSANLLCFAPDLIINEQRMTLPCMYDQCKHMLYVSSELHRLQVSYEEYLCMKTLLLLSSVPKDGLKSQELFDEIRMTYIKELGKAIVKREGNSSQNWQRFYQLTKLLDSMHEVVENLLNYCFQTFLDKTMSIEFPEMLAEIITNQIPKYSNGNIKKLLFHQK

Human Hsp90β (from UniProt P08238 1-724) (natural protein)
relaxation energy of the GRLBD chain with hHsp90 in absence of ATP: 42 KBT

Reference: article doi:10.1101/2021.08.08.455546
